Test results: patent EP4778941A1 (Jiangsu Hengrui Pharmaceuticals Co., Ltd., dated 2025)
Changes are numbered by the printed parent chain. Names and notes keep the numbering of the source. Read-outs that look alike come from different tables or passages of the source.

How the values were obtained:
[1] = target: T1, Human HER3 protein on the cell surface (human, UniProt P21860 20-1342); assay: cell-based or functional assay
[2] = target: T2, Human MET protein on the cell surface (human, UniProt P08581 25-1390); assay: cell-based or functional assay
T2 sequence (P08581 25-1390): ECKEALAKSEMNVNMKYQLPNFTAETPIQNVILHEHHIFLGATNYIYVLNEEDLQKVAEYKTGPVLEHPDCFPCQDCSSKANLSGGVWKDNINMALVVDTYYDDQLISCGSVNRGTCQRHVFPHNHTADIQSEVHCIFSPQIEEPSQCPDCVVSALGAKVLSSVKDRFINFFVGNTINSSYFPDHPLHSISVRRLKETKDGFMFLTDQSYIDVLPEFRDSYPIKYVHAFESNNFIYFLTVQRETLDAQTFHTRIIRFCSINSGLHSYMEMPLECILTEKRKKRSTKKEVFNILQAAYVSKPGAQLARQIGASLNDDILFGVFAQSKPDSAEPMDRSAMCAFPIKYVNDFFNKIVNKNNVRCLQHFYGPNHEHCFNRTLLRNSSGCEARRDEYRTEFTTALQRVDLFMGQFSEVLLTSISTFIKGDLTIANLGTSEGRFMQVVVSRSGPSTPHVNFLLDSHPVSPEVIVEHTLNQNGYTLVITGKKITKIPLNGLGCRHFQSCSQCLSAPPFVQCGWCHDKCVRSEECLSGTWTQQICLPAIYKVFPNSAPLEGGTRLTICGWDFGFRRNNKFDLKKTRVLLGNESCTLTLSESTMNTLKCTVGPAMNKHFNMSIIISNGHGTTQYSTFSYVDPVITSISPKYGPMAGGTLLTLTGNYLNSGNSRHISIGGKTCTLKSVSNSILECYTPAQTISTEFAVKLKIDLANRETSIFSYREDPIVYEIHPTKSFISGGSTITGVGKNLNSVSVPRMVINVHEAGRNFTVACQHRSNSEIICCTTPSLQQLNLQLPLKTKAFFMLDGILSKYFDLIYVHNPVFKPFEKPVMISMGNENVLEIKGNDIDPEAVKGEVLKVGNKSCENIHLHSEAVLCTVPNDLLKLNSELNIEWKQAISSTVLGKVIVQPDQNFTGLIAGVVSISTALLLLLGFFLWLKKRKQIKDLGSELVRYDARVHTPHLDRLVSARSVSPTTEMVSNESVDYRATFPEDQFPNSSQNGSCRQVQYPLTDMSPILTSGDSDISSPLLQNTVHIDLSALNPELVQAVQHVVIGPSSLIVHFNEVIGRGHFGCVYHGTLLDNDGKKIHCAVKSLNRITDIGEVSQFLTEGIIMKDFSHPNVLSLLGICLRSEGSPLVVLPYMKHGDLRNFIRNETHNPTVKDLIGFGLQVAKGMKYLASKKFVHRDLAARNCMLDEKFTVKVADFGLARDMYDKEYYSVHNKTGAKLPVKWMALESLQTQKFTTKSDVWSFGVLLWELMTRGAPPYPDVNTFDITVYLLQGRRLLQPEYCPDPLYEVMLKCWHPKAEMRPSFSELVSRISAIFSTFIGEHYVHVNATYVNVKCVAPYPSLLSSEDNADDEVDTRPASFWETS

[3] = target: T1, Human HER3 protein on the cell surface; assay: cell-based or functional assay; remark: listed apart in the source
[4] = target: T2, Human MET protein on the cell surface; assay: FACS on NCI-H1703 cells (MET single-positive)
[5] = target: T1, Human HER3 protein on the cell surface; assay: FACS on MDA-MB-453 cells (HER3 single-positive)
[6] = target: T1, Human HER3 protein on the cell surface; assay: FACS on HCC827 Osimertinib-resistant cells (HER3/MET double-positive)
[7] = target: T1, Human HER3 protein on the cell surface; assay: cell-based or functional assay; remark: listed apart in the source
[8] = target: T3, His-tagged human HER3 antigen (human, UniProt P21860 20-643); assay: SPR, Biacore 8K; antibody captured, His-tagged human HER3 antigen 6.25-400 nM as analyte; 1:1 Langmuir
T3 construct: Soluble antigen used as analyte in SPR; not shown: His tag

[9] = target: T4, Human HER3 and MET proteins together on HER3/MET double-positive cells (human, UniProt P21860 20-1342; P08581 25-1390); assay: cell-based or functional assay
[10] = target: T4, Human HER3 and MET proteins together on …; assay: cell-based or functional assay; remark: listed apart in the source
[11] = target: T4, Human HER3 and MET proteins together on …; assay: cell-based or functional assay; remark: listed apart in the source
[12] = target: T4, Human HER3 and MET proteins together on …; assay: FACS on HCC827 Osimertinib-resistant cells (HER3/MET double-positive)
[13] = target: T3, His-tagged human HER3 antigen; assay: SPR, Biacore 8K, protein A chip; ADC captured, His-tagged antigen 6.25-400 nM as analyte; 1:1 Langmuir
[14] = target: T5, His-tagged human MET antigen (human, UniProt P08581 25-932); assay: as above
T5 construct: Soluble antigen used as analyte in SPR; not shown: His tag
T5 sequence (P08581 25-932 limits assumed): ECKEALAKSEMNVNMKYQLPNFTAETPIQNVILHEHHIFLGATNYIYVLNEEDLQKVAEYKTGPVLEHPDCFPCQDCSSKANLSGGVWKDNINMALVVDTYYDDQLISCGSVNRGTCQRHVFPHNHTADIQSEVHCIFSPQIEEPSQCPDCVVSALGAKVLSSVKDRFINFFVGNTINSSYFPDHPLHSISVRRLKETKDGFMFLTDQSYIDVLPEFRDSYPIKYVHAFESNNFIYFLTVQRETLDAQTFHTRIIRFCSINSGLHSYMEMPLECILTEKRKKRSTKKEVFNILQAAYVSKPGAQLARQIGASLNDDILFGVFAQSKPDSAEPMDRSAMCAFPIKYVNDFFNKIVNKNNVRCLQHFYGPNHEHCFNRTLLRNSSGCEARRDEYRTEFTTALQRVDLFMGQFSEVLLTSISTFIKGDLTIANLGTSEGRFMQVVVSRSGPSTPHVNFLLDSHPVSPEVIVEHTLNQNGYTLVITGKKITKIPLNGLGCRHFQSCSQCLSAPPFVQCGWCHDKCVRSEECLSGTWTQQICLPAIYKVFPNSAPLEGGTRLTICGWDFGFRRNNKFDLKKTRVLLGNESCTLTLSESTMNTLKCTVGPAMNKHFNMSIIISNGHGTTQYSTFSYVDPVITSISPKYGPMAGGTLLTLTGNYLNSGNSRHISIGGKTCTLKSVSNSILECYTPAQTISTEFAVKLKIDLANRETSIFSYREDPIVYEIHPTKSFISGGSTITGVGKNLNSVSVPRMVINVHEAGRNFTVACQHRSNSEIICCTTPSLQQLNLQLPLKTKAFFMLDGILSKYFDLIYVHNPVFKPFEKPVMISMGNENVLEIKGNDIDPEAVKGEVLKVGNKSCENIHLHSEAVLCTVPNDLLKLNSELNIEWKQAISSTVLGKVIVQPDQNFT

B1: Naked antibody of the control antibody U3-1402 (U3-1402 Ab) (antibody, human IgG1, kappa, V domains shown)
VH: QVQLQQWGAGLLKPSETLSLTCAVYGGSFSGYYWSWIRQPPGKGLEWIGEINHSGSTNYNPSLKSRVTISVETSKNQFSLKLSSVTAADTAVYYCARDKWTWYFDLWGRGTLVTVSS
VL: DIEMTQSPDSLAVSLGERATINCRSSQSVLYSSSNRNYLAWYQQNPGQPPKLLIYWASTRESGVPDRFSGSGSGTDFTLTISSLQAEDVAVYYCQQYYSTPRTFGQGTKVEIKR
notes: Anti-HER3 control
[1]
  Minimum cell viability (%): 63.9%
[2]
  Minimum cell viability (%): 72.9%
[3]
  Minimum cell viability (%): 73.6%
[4]
  Maximum fluorescence value: 90
[5]
  EC50: 0.25 nM
  Maximum fluorescence value: 1990
[6]
  EC50: 0.46 nM
  Maximum fluorescence value: 1240

B2: Anti-HER3 antibody A (antibody, human IgG1, kappa, V domains shown)
VH: QVQLVQSGGGLVQPGRSLRLSCAASGFTFDDYAMHWVRQAPGKGLEWVSGISWNSGSIGYADSVKGRFTISRDNAKNSLYLQMNSLRAEDTALYYCAKEGLPGLDYWGQGTLVTVSS
VL: DIQMTQSPSSLSASIGDRATITCRASQHVGTYLNWYQQKPGKTPKLLISGAANLQSGVPSRFSGSGSGTDFTLTISSLQPEDFATYYCQQSYNTPPFSFGQGTKVEIKR
[1]
  Minimum cell viability (%): 28.5%
[2]
  Minimum cell viability (%): 77.8%
[3]
  Minimum cell viability (%): 63.8%
[7]
  Endocytosis ratio at 0 h (FACS): 0%
  Endocytosis ratio at 0.5 h (FACS): 55.5%
  Endocytosis ratio at 2 h (FACS): 80%
  Endocytosis ratio at 6 h (FACS): 82.2%
[4]
  Maximum fluorescence value: 81
[5]
  EC50: 0.48 nM
  Maximum fluorescence value: 1860
[6]
  EC50: 2.06 nM
  Maximum fluorescence value: 1020
[8]
  Kd: 14.5 nM
  koff: 0.0103 s⁻¹
  kon: 707000 M⁻¹ s⁻¹

B3: Anti-HER3/MET bispecific antibody 2232-01 (A13-A) (bispecific antibody, human IgG1, kappa)
heavy 1: not shown
light 1: DIQMTQSPSSVSASVGDRVTITCRASQGINTWLAWYQQKPGKAPKLLIYAASSLKSGVPSRFSGSGSGADFTLTISSLQPEDFATYYCQQANSFPLTFGGGTKVEIKGGGGSGIPPKIECLPIDISIDEGKVLTVASAFTGEPTPEVTWSTGGRKIHSQEQGRFHIENTDDSTTLTIKDVQKQDGGLYTLTLRNEFGSDSATVNIHIRSI
heavy 2: QVQLVQSGGGLVQPGRSLRLSCAASGFTFDDYAMHWVRQAPGKGLEWVSGISWNSGSIGYADSVKGRFTISRDNAKNSLYLQMNSLRAEDTALYYCAKEGLPGLDYWGQGTLVTVSSASTKGPSVFPLAPSSKSTSGGTAALGCLVKDYFPEPVTVSWNSGALTSGVHTFPAVLQSSGLYSLSSVVTVPSSSLGTQTYICNVNHKPSNTKVDKKVEPKSCDKTHTCPPCPAPELLGGPSVFLFPPKPKDTLMISRTPEVTCVVVDVSHEDPEVKFNWYVDGVEVHNAKTKPREEQYNSTYRVVSVLTVLHQDWLNGKEYKCKVSNKALPAPIEKTISKAKGQPREPQVCTLPPSREEMTKNQVSLSCAVKGFYPSDIAVEWESNGQPENNYKTTPPVLDSDGSFFLVSKLTVDKSRWQQGNVFSCSVMHEALHNHYTQKSLSLSPGK
light 2: DIQMTQSPSSLSASIGDRATITCRASQHVGTYLNWYQQKPGKTPKLLISGAANLQSGVPSRFSGSGSGTDFTLTISSLQPEDFATYYCQQSYNTPPFSFGQGTKVEIKRTVAAPSVFIFPPSDEQLKSGTASVVCLLNNFYPREAKVQWKVDNALQSGNSQESVTEQDSKDSTYSLSSTLTLSKADYEKHKVYACEVTHQGLSSPVTKSFNRGEC
notes: Four chains: H1 = A13 VH-GGGGS-Obscurin-O chain-IgG1 Fc1 (S354C/T366W); L1 = A13 VL-GGGGS-Titin-T chain; H2 = antibody A VH-CH1-IgG1 Fc2 (Y349C/T366S/L368A/Y407V); L2 = antibody A VL-CL
[9]
  Minimum cell viability (%): 12.4%
[1]
  Minimum cell viability (%): 21.7%
[2]
  Minimum cell viability (%): 0.6%
[10]
  Minimum cell viability (%): 24.7%
[11]
  Endocytosis ratio at 0 h (FACS): 0%
  Endocytosis ratio at 0.5 h (FACS): 67.9%
  Endocytosis ratio at 2 h (FACS): 83.2%
  Endocytosis ratio at 6 h (FACS): 84.1%
[4]
  EC50: 1.03 nM
  Maximum fluorescence value: 2430
[5]
  EC50: 2.72 nM
  Maximum fluorescence value: 1950
[12]
  EC50: 0.52 nM
  Maximum fluorescence value: 2470

B4: Anti-HER3/MET antibody-drug conjugate ADC-5 (bispecific antibody, human IgG1, kappa)
heavy 1: not shown
light 1: B3 light 1 with N30S, A69T
heavy 2: B3 heavy 2
light 2: B3 light 2 with T94V
modifications: compound 9-A on reduced cysteines, positions not given; compound 9-A (exatecan derivative linker-drug) on reduced cysteines, positions not given; average DAR 5.87 for the whole molecule
[13]
  Kd: 14.3 nM
  koff: 0.00721 s⁻¹
  kon: 505000 M⁻¹ s⁻¹
[14]
  Kd: 13.1 nM
  koff: 0.000872 s⁻¹
  kon: 66500 M⁻¹ s⁻¹
